In test [1] the target is Catalytically inactive recombinant S195A thrombin mutant (UniProt P00734). Put plainly: other fluorescence titration.
For test [2], the target named is Nα-fluoresceinated hirugen ([F]-hirugen). Nature of the test: other fluorescence titration.

The text below walks through data of paper PMC9198058.

Take Hirugen (54…*LQ65) (peptide): the increase of [F]-hirugen fluorescence on displacement in test [1] turned out to be 65%.
On to “Catalytically inactive recombinant S195A thrombin mutant (from UniProt P00734 44-622) (enzyme)”, for which, in test [2], the dissociation constant (Kd) (usually a measure of binding affinity in units of concentration) was 30 nM.
